Data reported in a protein production outcome set (Wang et al. 2014).

Test: label from the status in PepcDB records
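Also: failed if final PepcDB status was selected cloned or expressed and not failed if soluble or beyond.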

For “MNALAVRWNDWPITRKSLAVVTLPLLLLAVALMAIYSVERQNIAAENDVRQTLEVLSDLYEAHALLAETAAGVRGYRLVRRDEFLTPYRDAEPRLQRVADRLSQRITDPSQAQRFARIKPLFAEKMQGWRRLLAPDLSREEEIRQLWDGKYKLDILRAELRELRNYETAQLQVRTAKAQGLRQRNLIITLSAAMLGGLGAVFAVAWFASALSGRLRTLAANADRLGEGLPLAPQPRAGDELGQVGQRLAQASELLAARAAEAQLARREAETANRAKTEFLSRSSHELRTPLNAILGYAQVLEMDLPEPGHRRHLRHILGAGRHLLGLITELLDIARIEADQLDLSPEPISVRAAVHEALGLIAPDADKHGIALQPASIDGPWTVRADAQRLRQVLLNLLSNAVKFNRTGGQVQVSAQADGEQVRITVADQGAGLTPAQIERLFTPFERLGAERSAVEGTGLGLALSKRLIEAMGGQIGVDSSSDGARFWISLPQGEHQHSEPTRPLVPPSNAGSGVCRLLSIEDNPSNQALIRTLTERRPQWQLLEAASLAQARELLQHGAPDLILLDLHLSDGNGEELLRELQAQPAMAAIPVVVISADATSATLARVGNQGVRAYLTKPLDVAEFFTVIDGLLA”, which protein production is on record?
Its protein production is “not failed”.

With “MNALKGRDILALGFMTFALFVGAGNIIFPPIVGLQSGPHVWLAALGFLITAVGLPVITVIALAKVGGSVDALSHPIGRYAGGLLAAVCYLAVGPLFAIPRTATVSFEVGVVPLLGESGTALFVYSLAYFLLALAISLYPGRLLDTVGRFLAPLKILALAILGVAAFLWPAGPIGTAQPEYTQAAFSQGFVNGYLTMDTLAALVFGIVIVNAIRSRGVQSPRLITRYAIVAGLIAGVGLVLVYVSLFRLGAGSHAIAADASNGAAVLHAYVQHTFGSLGSSFLAGLIALACLVTAVGLTCACAEYFCQRLPLSYRSLVIILAGFSFIVSNLGLTKLIQVSIPVLTAIYPPCIVLVALSFCIGLWHSATRILAPVMLVSLAFGVLDALKAAGLGQDFPQWLLHLPLAEQGLAWLIPSVATLAACSLVDRLLGKPAQVAA” as the sequence, how does the protein production read?
Its protein production is “failed”.

For “MNANYVSKKPYIVTIACTKGGSAKSTNAANIGAFCADHGLRTLLIDTDTQPTLSSYYSLAKTAPGGIYEFLLQRDVEPSHIVSQTSIKNLDLIQSNDPSNNVSHMLRNAPDGSIRFSHLIKSINNYDVIVIDTRGTRDITVDMSVLAADILFCPILPQILSAKEFIRGTIGMYQDLQTFESFGFKLPPLKAIANGVDNTNDVKFVMQKLHTLFANTFDESKTLLDFSIPYHVAYREAVTYALPVYRHSAVEYPVMQQLCCLLLPQFKENFEKPMQRGLEHHHHHH”, which protein production is on record?
Its protein production is “not failed”.

For “MNAPEIAAFKAERREPDKTDVDKLTGELDIRSEIWLIFDDLSTILEDQHFADKGVELLFSSLRYNTHNAKIIVTSRIVPIFENGESLIDVVEDEEKQNLKGLRKDYAVDYLVSNGLDKVEHEKLEELATGVDGHPLALKLLVELVKEFGVKDTLEDLSMYQESKDDTIKKARRLFDKLAGEEKELLESISVYREPVDMKGLREMFTLNTPKNAVKKLTDKSLLENDHNGSYWLHPLVQEFSYKDLKNKKEAHILAVKYCLSLPLPENPTKKGDVQPLIEAHYHTCAAKEYDAAAEIIFHFKLYEMLERWGNYNTLIELYEGVLPKSHFEDEPLLKNKEFHISILGNLGNVYTVLNEGKKAIQYHEKVVELNKGATNKFNEIISISNIGLFYFQQGMMKKAIECFEQTLKISNHDNQKGISGANLGNIGLVYLQIGEPKKAIQYFEKSLPLLKEANDKRREGANLGHMGMAYLQLNEAKEAVQCIQQSMYIAEEINDKRSIGNCFGNMGIIHSFFGEMKEALESYEQALSIAKEIDDRCNLGNWLGNKGRVYFDSGEIEKAIEFYKHALRIAKEINDVVREGLWIENLGQAFSYQGEFKKAIEYYEQALKISREIGNISAEGNLLENMGLAYYSLGEPRKAIEFLKESLAIRKAIEDPKIIGFCEQKLKELKGYDE”, which protein production is on record?
The protein production was “failed”.

Which protein production does the source give for “MNAQLQYQIEQFFYRKSELCDAQDWDAYLQLFAVDSEFHLPQWDSEHVYTRDPKREMSLIYYANRSGLEDRVFRLRTGKAASTIPMPRTLHMVSNLRIAEGDNGLLRVRLNWHTLFYRLATSEEFYGHATYDLKPQGDSWLIQRKHVLLLNDTINSVLDFYHL” here?
The protein production was “failed”.

With “MNARVHQPVHTAQHAPSYYAATLNRRIECPPLAGEEQADVCVVGGGFSGVNTALELAQRGFSVVLLEAHQIGWGASGRNGGQLIRGVGHDVEQFLPVIGADGVKALKLMGLEAVEIVRRRVEQYAIDCDLRWGYCDLANKPGDYQGFREDMEELQALGYRHEMRLVPAAEMRSVIGSDRYVGGLVDMGSGHLHPLNLVLGEAAAAQSLGVRLFERSTVMRIDYGTEVQVHTATGKVRAKTLVLGCNAYMNDLNPLLGGKVLPAGSYVIATEPLDEKLARQLLPQNMAVCDQRVALDYYRLSADNRLLFGGACHYSGRDPSDIAAYMRPKMLEVFPQLANVRIDYQWGGMIGIGANRLPQIGRLPGQPNVYFAQAYSGHGVNATHLAGQLLAEAIGGQQSDGFDLFAKVPHITFPGGKLLRSPLLALGMAWY” as the sequence, how does the protein production read?
The protein production was “failed”.

With “MNAVTEGRKVLLEIADLKVHFEIKDGKQWFWQPPKTLKAVDGVTLRLYEGETLGVVGESGCGKSTFARAIIGLVKATDGHVAWLGKELLGMKPDEWRAVRSDIQMIFQDPLASLNPRMTIGEIIAEPLRTYHPKMSRQEVRERVKAMMLKVGLLPNLINRYPHEFSGGQCQRIGIARALILEPKLIICDEPVSALDVSIQAQVVNLLQQLQREMGLSLIFIAHDLAVVKHISDRVLVMYLGHAVELGTYDEVYHNPLHPYTRALMSAVPIPDPDLEKNKTIQLLEGELPSPINPPSGCVFRTRCPIAGPECAKTRPVLEGSFRHAVSCLKVDPL” as the sequence, how does the protein production read?
The protein production was “failed”.

With “MNAYLSMNSDWRASMTQTVLVLGASGRFGRNAAEAFGRAGWTVRQFDRKRDDLDAAARGADVIVNAWNPPYPDWAATVPGLHARVIKTAQATGATVIIPGNVYVFGADTPAPWGPDSPHAATNPLGRIRIDMEAAYRASGVRTILLRAGDFLDTCASGNWFDQVMIKRLDKGRFTYPGNPDIPHAWAYLPDLARATVTLSERRETLPVFCDLTYPGYTMTGRQIATGLEQVTGRRVALKRMNWLPLHLARPVWSLAGSLLEMRYLWNTPHSLDGAAFAKVLPEFVQTPFEQALASAIPARLLAAQVHPDQAVAAGL” as the sequence, how does the protein production read?
The protein production was “failed”.

Which protein production does the source give for “MNAYYYLAIAICAEVIATVSMKAVKGLSTPLPLALIIVGYGVAFWMLTLVVRTVPVGVAYAVWAGMGIVMVSIAALFLYGQKLDIPAMLGMALIVLGVVVIQLFSKTAGH” here?
Its protein production is “failed”.

With “MNDFKNQWLRKRTFAIPASRLTGRLTTLKSDVPAADSLFWKLWNGSLDTAVQVLQTDYFKGIAAGTLDPNAYGSLMVQDGYYCFRGRDDYATAATCAQDETLREFFKAKAKSYDEYNETYHQTWHLREASGLIPGTDIKDYADYEAYVAGSLASPYMCVVMLPCEYLWPWIANFLDGYTPTNSLYRFWIEWNGGTPNGAYQMGNMLEQYRDKIDEDKAVEIFNTAMNYELKVFTSSTILTTIENGK” as the sequence, how does the protein production read?
Its protein production is “not failed”.

For “MNDFLFYLDIFGVIVFALSGALMAGRYQLDPFGVVVLASVTAVGGGTIRDVILQTPVFWVEKPYYLYVILATAILTIVLIRQPKRIPKRFLLIADALGLALFAVLGTQKALYLGAPIPVAVVLGTITGIAGGMIRDVLCNVIPMILREEIYALAAMLGGSLFIILHGLNWNDTNAMIVSISAALALRLAAIYWHVSLPAFHIVEKPKKEKGTTKIIEKK”, which protein production is on record?
The protein production was “failed”.

With “MNDFTFRCERPSLRLFAAAVVAVLLGLAPASSESVRKSGYAIGTESCGSGDLAFPRLQIDMKAGFCAGLVASEEDRLKFPRSIVQVPGRDLFVVADMGGWGHTDGRLLLLDPHAPPGQRFKELLTGLEYPFGLVIGPDRKLYASTAEAIFRFDPLADNPRGTVETIIRHMPGRRITLPDGTRLDESAHPLKQFVFDRNGRLFVNVGSHSDDCITPAPITKPCAAAEGASAMAAIWLFTPPSGGVFPALRPNDPDPPHTVYARGLRNSMALALHPNFPDAGYAFLQGENGRDLPDIFKPNEEINAIEQGRHYGWPYCYDLSTPSPEFRSVLQSGTYKSLCTANALYKPPFSLLPPHGAPLAMLYYHGAKFPELEGKLLVGLHGYRPTGSRVLAYDVDDHGFPRPSPAPVRYHVSCAADPTHSFQTDAGEVAAAPFEELIAGWHRVNGARPQGAPVGMTVAEDGAIWLVEDKNQTVIRIDRAAGDAPQPLPCDTRSQAMIDQLAAFIARDAQNSVRLTTLRKGLVEKHCLGCHSDFGLKAGQSEAEKDATVLRFMLSQDGWIYPGDPDSGRLRTRLRGLGAEKLMPPGGESLPKTEPGYARLLDTADLLVARMVPGTRIRIKAGPPQRRFFGKTNKECGEIPAAKVVVVTQRSAVDKPGFSRFFRPADPYLNGECTDDDGYYIRQEFLVPVQ” as the sequence, how does the protein production read?
Its protein production is “failed”.

Which protein production does the source give for “MNDLLSSYLPVLIFIVVSAVIAGGLLVIPYIVAYRSPDPEKLSAYECGFNSFNDARMKFDIRFYLVSILFIIFDLEVAFLFPWAVSFGSIGMFGFWSMIIFLALLTVGFIYEWKKGALEWD” here?
The protein production was “failed”.

Which protein production does the source give for “MNDPMGETGFSRESAPEIVFSETDMAAAEQLMHLSEEETVSCSSSTGGDCGGGGGDKIKHEYVSSRIGNELNDGVRGNSILGVEKKRKRTVMKEKKFRSLESIYKGTKEIRD” here?
Its protein production is “failed”.

With “MNDRSLGILLMFLTVIFWGISFVATKIILVYIPPITLGFIRFAIAAMILIVLIRNFPSYSKKDFLNLVLAGFLGITSYFLFENVALEYTTATNAALIAATVPIFYLMVSDLVERRIPSKIQYFGSLIGLFGVSILILNGRLILELNPIGDLLMIGAVLSWVLYTFVIQKLEKHDNLTVTRDITLIGVLLSVPFMLLEFGSKGVLDLGVFLNPPLTFAVLYLAIFCSAIAYLFWNMSIRLAGASTTNNGIYFIPIVAMIADSIILKNIPNIYATIGAVLVLFGVYISEKGDKLKIKL” as the sequence, how does the protein production read?
Its protein production is “failed”.

Which protein production does the source give for “MNEHNITNTSLALSMLLVVVAMLISHKEKLALEKDILWSVCRAVIQLIIVGYVLKYIFGVNHAALTLLMVLFICFNAAWNAQKRSKYIDKAFLSSFIAITVGAGLTLTVLVLTGSIEFAPMQVIPIAGMVAGNAMVAVGLCYNQLGLRFHSEQQQIQEKLSLGATPKMASAGLIRDSIRASLIPTIDSAKTVGLVSLPGMMSGLIFAGIDPVKAIKYQIMVTFMLLSTASLSTIIACYLTYRKFYNSRHQLVVMPLKKS” here?
Its protein production is “failed”.

Which protein production does the source give for “MNEKFNINIAWFLIILGGIIECFWVSGLKYSTEIWHYILTAIGVCISFTCFLKACERLEVSITYSVFVGIGTIGVVLNEMFIFNEAVSIIKLVLIAILLLSIIALKWVSKEA” here?
Its protein production is “failed”.

For “MNENTKVIKGRTGDWEMVLGLEVHAQVASKSKLFSGAAVGFGAGPNEQVSLVDAAMPGMLPVLNRFCVEQAVKTGLGLRAQINLKSRFDRKNYFYPDLPQGYQISQFDQPIVGEGVVSVERDDGTTFDVRIERLHLEQDAGKSLHDQDPNATYVDLNRAGTALMEIVSKPDMRTSEEAAAYVKKLRTILVYLGTCDGDMEKGNLRADVNVSVCRPGDYEKFRATGDFKHLGTRCEIKNVNSYRYIQQAIEYEARRQIEILEDGGKVDQETRLFDPTKGETRSMRSKEEAHDYRYFPDPDLLPLVLDPAWVKSIEETLPELPDAKKARLQSQYGLSAYDAGVLIIDADRADYFEAAAKGRDAKLVANWVTNELLAKLSAAGTEFTNSPLPHTDIAQLVELIENGTISSKIAKEVFEHMWAGEGRPAEIVEKRGLVQINDTGAIEKAIDDLIAGNPDKAEAVKDKPQALGWFVGQVMKATGGKANPGTVNELLRKKLGVE”, which protein production is on record?
Its protein production is “failed”.

Which protein production does the source give for “MNEQKNTAENTVNKQKDLETAGKTREKEDPKQLLLTASETDNYEDKLRIYDKALGLDPLYFDAWLQKGFVLDRLGRSNEALDCYNKALEIVPDHLGIKCLKGFAYSNLKDYEKAIECYDEVLKVNSEDVFSLFQKGSVLENLGRYGEAMEAYDRALEIDPADILIREKKMRLLGLIYKKGTLVDSPDSDFN” here?
Its protein production is “failed”.
